Legend:
[1] = biological target: T1, PAR-2 (Homo sapiens, UniProt P55085); assay: Calcium influx in PAR-2-expressing insect cells; format: cell-based; conditions: AST 2 units/mL; trypsin, thrombin 0.1 to 10 units/mL; SFLLRNamide, SLIGRL 10 to 100 μM
T1 construct: expressed in transfected cells; host or cells: Sf9 insect cells infected with recombinant baculovirus VL-PAR (pVL1393)
T1 sequence (P55085 26-397): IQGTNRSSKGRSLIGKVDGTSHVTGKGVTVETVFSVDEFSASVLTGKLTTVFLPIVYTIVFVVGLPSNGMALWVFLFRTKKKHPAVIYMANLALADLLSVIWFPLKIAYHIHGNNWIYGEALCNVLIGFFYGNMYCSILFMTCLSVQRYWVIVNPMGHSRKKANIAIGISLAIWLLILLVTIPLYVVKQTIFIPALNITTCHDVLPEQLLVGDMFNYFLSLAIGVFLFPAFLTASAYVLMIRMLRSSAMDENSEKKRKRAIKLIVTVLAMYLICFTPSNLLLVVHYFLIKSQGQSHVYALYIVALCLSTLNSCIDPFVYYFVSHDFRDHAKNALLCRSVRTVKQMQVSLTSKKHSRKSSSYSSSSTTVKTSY
Protocol: The above-obtained recombinant baculovirus VL-PAR for expressing the PAR was used to infect 1.0×10^7 Sf9 cells sowed on a 75 cm^2 flask at an MOI=2, and was then left and stationally cultured at 27° C. for 40 hours. After the culture, the infected cells were recovered and then subjected to a calcium influx experiment to-confirm the function of the PAR.
The recovered infected cells (about 5×10^6 cells) were once washed with HEPES-Tyrode buffer solution-Ca^2+ (−) pH 7.4, and then suspended in 5 mL of HEPES-Tyrode buffer solution (containing Fura2-AM, 1 μg/mL) to load the Fura2-AM on the cells at 27° C. for 30 minutes. The suspension was centrifuged at 800 rpm at room temperature for 5 minutes to recover the cells. The cells were twice washed with HEPES-Tyrode buffer solution-Ca^2+ (−) pH 7.4 and then resuspended in 5 mL of HEPES-Tyrode buffer solution-Ca^2+ (−) pH 7.4. The cell suspension was mixed with 5 μL of 1M CaCl2 to give a final concentration of 1 mM CaCl2, and then incubated in a shaded state at room temperature for 5 minutes. The prepared Fura2-AM-loaded infected cells were dispensed into a 96 well plate in a volume of 100 μL/well, further subjected to the dispensation of HEPES-Tyrode buffer solution-C^2+ (+) pH 7.4 in a volume of 80 μL/well, and then assayed with a Fluorescence Drug Screening System (made by Hamamatsu Photonics Co.). Namely, [intensity of 500 nm fluorescent light due to 340 nm exciting light]/[intensity of 500 nm fluorescent light due to 380 nm exciting light] (reflecting the concentration of calcium in the cells) was assayed.

[2] = tested on: EGFR; assay: Tyrosine phosphorylation of EGFR in NCI-H292 cells; format: cell-based, human; conditions: HAST 0.3 U/mL, 30 to 240 minutes
Protocol: NCI-H292 cells (purchased from ATCC) were suspended in 10% FCS-containing RPMI-1640 (produced by Gibco Corp.) and then sowed on a 12 well plate (made by Falcon Corp.) in a density of 6.0×10^4 cells/cm^2. The cells were cultured for 72 hours, subjected to the replacement of the culture medium by 0.1% BSA-containing RPMI-1640, and further cultured for 24 hours.
On the day of the treatment, the culture solution of the wells was replaced by RPMI-1640 (containing 0.1% BSA) containing HAST (0.3 U/mL), EGF (1 μg/mL), and the treatments were carried out for 30, 60, 120, 180, 240 minutes, respectively.
The cells treated with the HAST or the EGF for the prescribed time were twice washed with ice-cooled PBS, mixed with 500 μL of an ice-cooled Lysis buffer solution (50 mM Tris-HCl, pH 7.4, 5 mM EDTA, 1% Triton X-100 (Sigma), 150 mM NaCl, 10% glycerol, 1% Protease inhibitor Cocktail (Sigma), 1% Phosphatase Inhibitor Cocktail (Sigma)), allowed to stand on ice for 15 minutes, and then recovered in a micro tube. The recovered product in the micro tube was centrifuged at 15,000 rpm at 4° C. for 10 minutes, and the supernatant was recovered as a sample. The protein concentration of the sample was assayed with BioRad Protein Assay (produced by Bio Rad Corp.), and properly diluted with the Lysis buffer solution so that the protein concentrations in all the samples become 1.48 mg/mL. […]

For “HAST: human airway-specific trypsin-like enzyme; propeptide moiety bound to trypsin-like protein moiety via a disulfide bond”, the “Ca2+ influx” value [1] was “observed” and the “tyrosine phosphorylation of EGFR” value [2] was “activated EGFR”.
